Substrate in series [1]: N[C@@H](Cc1c[nH]c2ccccc12)C(=O)O
The series is described as follows: purified protein. The format is biochemical, Caenorhabditis elegans. The note with it: 0.5 mM NADPH, excess FAD, 0.04 µM FMO-2, 25 mM sodium phosphate pH 8.5, 0.5 mM DETAPAC, 30 °C.

Substrate in series [2]: NC(=O)C1=CN([C@@H]2O[C@H](COP(=O)(O)OP(=O)(O)OC[C@H]3O[C@@H](n4cnc5c(N)ncnc54)[C@H](OP(=O)(O)O)[C@@H]3O)[C@@H](O)[C@H]2O)C=CC1
In words: purified protein. It counts as biochemical, Caenorhabditis elegans. Particulars: NADPH varied 10 µM to 1.5 mM, excess FAD, 25 mM sodium phosphate pH 8.5, 30 °C, varied: cofactor.

B1: FMO-2 (CeFMO-2) (Caenorhabditis elegans) (protein)
chain: MGNKRVAVIGAGASGLPSIRHGLLYGFDVTCFEASDDIGGLWRYKSHETNESSVMKTTVINTSKEMTAYSDFTPQENLANFMHNNEMLNYFKSYAEHHGLMKHIKLRHRVLNIERSKNYDNDGTWKVIYQTPEEKTLEEIFDGVLVCSGHHAIPHWPKPFPGQNEFKGRIVHSHDYKDHKGYEDKVVVVVGIGNSGIDVAVEQSRIAKQVYLVTRRGTWLIPKLETRGLPFDIIMNTRFFSLYKLFPQAMLNSLVEYRINQRIDHDLYGLKPAHRVFSAHPSLNDELPNRIANGTVRIKPNIKKFDGYAIHFEDGTIVPHVDEVVMSTGFSFEFNLIEHGKLVPVSENEVDLFKYMFPVATSDHNSLCIIGLIQPFGSIMPVSEQQARVFFANMVSGNNLIPKKSQMSEDVLNKKEAMAQQFVKSRRHTIQVDYIPYMDELAELIGCQVPLLRTLFTDPVLGLRLFFGPNAGYCYRLAGPHTWNGARNAILTIDQRVRMATTTKPEPTNYTVPLVISSIILLLVIYFVM
notes: purified FMO-2 protein purchased from GenScript; assayed with excess FAD
B1: in series [1], the Km was determined as 880 ± 430 µM and the kcat was found to be 9.7 ± 1.5 s⁻¹. In series [2], the Km turned out to be 2500 ± 1240 µM and the kcat stood at 264 ± 98 s⁻¹.

(Values after PMC9894935, “FMO rewires metabolism to promote longevity through tryptophan and one carbon metabolism in C. elegans” (Nature Communications, 2023).)
